Experimental data published in patent US20230322950A1.

Tests used:
[1] = molecular target: VH2VL1-CD8ATD-CD137CSD-CD3zSSD fusion
[2] = molecular target: VL1VH3-CD8ATD-CD137CSD-CD3zSSD fusion
[3] = molecular target: VH2VL1-CD8ATD-CD137CSD-CD3zSSD fusion; remark: listed apart in the source
[4] = molecular target: VL1VH3-CD8ATD-CD137CSD-CD3zSSD fusion; remark: listed apart in the source
[5] = molecular target: VH1VL1-CD8ATD-CD137CSD-CD3zSSD fusion
[6] = molecular target: VH3VL1-CD8ATD-CD137CSD-CD3zSSD fusion
[7] = molecular target: VH2VL1-CD8ATD-CD137CSD-CD3zSSD fusion; remark: listed apart in the source
[8] = molecular target: VL1VH3-CD8ATD-CD137CSD-CD3zSSD fusion; remark: listed apart in the source
[9] = molecular target: VH1VL1-CD8ATD-CD137CSD-CD3zSSD fusion; remark: listed apart in the source
[10] = molecular target: VH3VL1-CD8ATD-CD137CSD-CD3zSSD fusion; remark: listed apart in the source

Sequence of VL1VH3-CD8ATD-CD137CSD-CD3zSSD fusion (chain, as listed by the source): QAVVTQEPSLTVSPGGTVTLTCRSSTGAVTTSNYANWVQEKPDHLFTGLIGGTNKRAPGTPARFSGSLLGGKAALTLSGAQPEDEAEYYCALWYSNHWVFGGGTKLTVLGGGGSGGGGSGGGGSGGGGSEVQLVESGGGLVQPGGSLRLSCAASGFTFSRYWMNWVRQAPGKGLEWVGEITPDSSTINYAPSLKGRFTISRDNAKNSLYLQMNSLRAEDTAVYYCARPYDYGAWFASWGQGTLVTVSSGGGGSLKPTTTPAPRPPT
Sequence of VH2VL1-CD8ATD-CD137CSD-CD3zSSD fusion (chain, as listed by the source): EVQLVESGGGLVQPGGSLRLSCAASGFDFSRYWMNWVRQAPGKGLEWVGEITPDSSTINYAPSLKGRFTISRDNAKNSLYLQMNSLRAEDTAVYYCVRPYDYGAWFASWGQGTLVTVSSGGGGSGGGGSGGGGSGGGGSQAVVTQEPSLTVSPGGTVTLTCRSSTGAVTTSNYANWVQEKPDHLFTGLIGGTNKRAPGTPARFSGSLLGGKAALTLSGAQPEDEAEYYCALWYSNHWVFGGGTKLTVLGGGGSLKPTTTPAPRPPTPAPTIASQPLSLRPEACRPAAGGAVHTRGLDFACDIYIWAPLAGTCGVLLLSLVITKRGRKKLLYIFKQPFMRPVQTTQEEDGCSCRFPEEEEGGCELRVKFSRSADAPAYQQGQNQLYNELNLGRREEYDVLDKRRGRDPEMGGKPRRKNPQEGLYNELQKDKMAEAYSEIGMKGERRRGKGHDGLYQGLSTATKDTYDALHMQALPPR
Sequence of VH1VL1-CD8ATD-CD137CSD-CD3zSSD fusion (chain, as listed by the source): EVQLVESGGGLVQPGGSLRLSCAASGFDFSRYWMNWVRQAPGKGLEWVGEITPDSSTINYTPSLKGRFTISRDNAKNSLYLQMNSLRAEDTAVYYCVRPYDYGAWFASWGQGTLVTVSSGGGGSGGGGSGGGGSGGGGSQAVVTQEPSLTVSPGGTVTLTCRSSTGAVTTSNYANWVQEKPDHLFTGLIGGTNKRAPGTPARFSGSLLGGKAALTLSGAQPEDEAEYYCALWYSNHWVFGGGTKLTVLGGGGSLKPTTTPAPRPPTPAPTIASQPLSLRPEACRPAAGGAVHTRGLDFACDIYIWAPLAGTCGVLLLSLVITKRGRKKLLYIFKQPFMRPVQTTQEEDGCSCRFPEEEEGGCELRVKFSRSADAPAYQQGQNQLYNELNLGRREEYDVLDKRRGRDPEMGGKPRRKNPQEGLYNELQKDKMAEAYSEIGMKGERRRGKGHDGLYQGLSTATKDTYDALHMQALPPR
Sequence of VH3VL1-CD8ATD-CD137CSD-CD3zSSD fusion (chain, as listed by the source): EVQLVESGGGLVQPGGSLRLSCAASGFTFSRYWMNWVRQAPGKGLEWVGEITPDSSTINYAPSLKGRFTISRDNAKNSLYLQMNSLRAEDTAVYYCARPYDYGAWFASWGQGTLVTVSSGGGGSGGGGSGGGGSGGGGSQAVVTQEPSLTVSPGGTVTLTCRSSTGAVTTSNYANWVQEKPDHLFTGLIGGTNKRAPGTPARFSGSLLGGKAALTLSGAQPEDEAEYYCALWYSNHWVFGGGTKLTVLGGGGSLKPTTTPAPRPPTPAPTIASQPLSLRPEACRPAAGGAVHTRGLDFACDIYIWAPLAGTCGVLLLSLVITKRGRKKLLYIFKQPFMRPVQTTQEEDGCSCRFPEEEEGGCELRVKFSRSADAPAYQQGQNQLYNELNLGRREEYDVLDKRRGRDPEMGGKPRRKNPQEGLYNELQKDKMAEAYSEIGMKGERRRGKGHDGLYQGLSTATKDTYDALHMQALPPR

## DP47 P329G LALA (antibody)
[1]
  EC50 printed in the drawn table (row 'VH2 x VL1') for the Jurkat NFAT reporter assay with WSUDLCL2 cells and untargeted DP47 P329G LALA; the curve stays at background (about 60 to 90 RLU/s): 293 pM
[2]
  EC50 printed in the drawn table (row 'VL1 x VH 3') for the Jurkat NFAT reporter assay with WSUDLCL2 cells and untargeted DP47 P329G LALA; the curve stays near background (about 60 to 110 RLU/s): 7420 pM

## anti-CD20 (GA101) D246A P329G IgG1 (antibody)
[3]
  EC50 of Jurkat NFAT luciferase reporter activation (RLU/s), WSUDLCL2 target cells 5:1; drawn table, row 'VH2 x VL1'; x axis 'GA101 D246A P329G [nM]': 0.0104 nM
[4]
  EC50 of Jurkat NFAT luciferase reporter activation (RLU/s), WSUDLCL2 target cells 5:1; drawn table, row 'VL1 x VH 3'; x axis 'GA101 D246A P329G [nM]': 0.00619 nM
[5]
  EC50 of Jurkat NFAT luciferase reporter activation (RLU/s), WSUDLCL2 target cells 5:1; drawn table, row 'VH1 x VL1'; x axis 'GA101 D246A P329G [nM]': 0.00814 nM
[6]
  EC50 of Jurkat NFAT luciferase reporter activation (RLU/s), WSUDLCL2 target cells 5:1; drawn table, row 'VH3 x VL1'; x axis 'GA101 D246A P329G [nM]': 0.00582 nM

## anti-CD20 (GA101) P329G LALA IgG1 (antibody)
[7]
  EC50 of Jurkat NFAT luciferase reporter activation (RLU/s), WSUDLCL2 target cells 5:1; drawn table, row 'VH2 x VL1': 6.93 pM
[8]
  EC50 of Jurkat NFAT luciferase reporter activation (RLU/s), WSUDLCL2 target cells 5:1; drawn table, row 'VL1 x VH 3': 6.58 pM
[9]
  EC50 of Jurkat NFAT luciferase reporter activation (RLU/s), WSUDLCL2 target cells 5:1; drawn table, row 'VH1 x VL1': 8.1 pM
[10]
  EC50 of Jurkat NFAT luciferase reporter activation (RLU/s), WSUDLCL2 target cells 5:1; drawn table, row 'VH3 x VL1': 7.57 pM
